B1: GST-GluR2 NTa4 (K172-D221) (other, UniProt P19491 172-221, looked up)
chain: KWQVTAINVGNINNDKKDETYRSLFQDLELKKERRVILDCERDKVNDIVD
notes: range 172-221; also called GluR2NT1-4; not shown: glutathione S-transferase (GST) encoded by vector pGEX-4T3
B2: p53, endogenous protein of rat hippocampus (other, UniProt P10361 1-391, looked up)
chain: MEDSQSDMSIELPLSQETFSCLWKLLPPDDILPTTATGSPNSMEDLFLPQDVAELLEGPEEALQVSAPAAQEPGTEAPAPVAPASATPWPLSSSVPSQKTYQGNYGFHLGFLQSGTAKSVMCTYSISLNKLFCQLAKTCPVQLWVTSTPPPGTRVRAMAIYKKSQHMTEVVRRCPHHERCSDGDGLAPPQHLIRVEGNPYAEYLDDRQTFRHSVVVPYEPPEVGSDYTTIHYKYMCNSSCMGGMNRRPILTIITLEDSSGNLLGRDSFEVRVCACPGRDRRTEEENFRKKEEHCPELPPGSAKRALPTSTSSSPQQKKKPLDGEYFTLKIRGRERFEMFRELNEALELKDARAAEESGDSRAHSSYPKTKKGQSTSRHKKPMIKKVGPDSD
B3: GST-GluR2 NTa5 (Q222-S271) (other, UniProt P19491 222-271, looked up)
chain: QVITIGKHVKGYHYIIANLGFTDGDLLKIQFGGANVSGFQIVDYDDSLVS
notes: range 222-271; also called GluR2NT1-5; not shown: glutathione S-transferase (GST) encoded by vector pGEX-4T3
B4: GST-GluR2 NTc (L422-E545) (other, UniProt P19491 422-545, looked up)
chain: LESPYVMMKKNHEMLEGNERYEGYCVDLAAEIAKHCGFKYKLTIVGDGKYGARDADTKIWNGMVGELVYGKADIAIAPLTITLVREEVIDFSKPFMSLGISIMIKKPQKSKPGVFSFLDPLAYE
notes: range 422-545; also called GST-GluR2NT3; GluR2NT3; not shown: glutathione S-transferase (GST) encoded by vector pGEX-4T3
B5: GST-GluR2 NTb (K272-I421) (other, UniProt P19491 272-421, looked up)
chain: KFIERWSTLEEKEYPGAHTATIKYTSALTYDAVQVMTEAFRNLRKQRIEISRRGNAGDCLANPAVPWGQGVEIERALKQVQVEGLSGNIKFDQNGKRINYTINIMELKTNGPRKIGYWSEVDKMVVTLTELPSGNDTSGLENKTVVVTTI
notes: range 272-421; also called GST-GluR2NT2; GluR2NT2; not shown: glutathione S-transferase (GST) encoded by vector pGEX-4T3
B6: GST-GluR2 NTa1 (V22-F71) (other, UniProt P19491 22-71, looked up)
chain: VSSNSIQIGGLFPRGADQEYSAFRVGMVQFSTSEFRLTPHIDNLEVANSF
notes: range 22-71; also called GluR2NT1-1; not shown: glutathione S-transferase (GST) encoded by vector pGEX-4T3
B7: Glyceraldehyde 3-phosphate-dehydrogenase (GAPDH), endogenous protein of rat hippocampus (enzyme)
chain: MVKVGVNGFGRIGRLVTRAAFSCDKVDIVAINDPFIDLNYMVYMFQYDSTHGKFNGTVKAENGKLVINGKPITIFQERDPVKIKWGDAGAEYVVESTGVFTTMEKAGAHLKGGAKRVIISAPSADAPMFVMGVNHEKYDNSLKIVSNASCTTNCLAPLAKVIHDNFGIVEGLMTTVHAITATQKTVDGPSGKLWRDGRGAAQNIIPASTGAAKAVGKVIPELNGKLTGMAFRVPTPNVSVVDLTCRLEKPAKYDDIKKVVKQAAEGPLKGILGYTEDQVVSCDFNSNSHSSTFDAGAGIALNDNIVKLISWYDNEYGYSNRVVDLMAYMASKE
notes: Native protein in rat hippocampal extracts, primary rat hippocampal neurons and rat brain
B8: GST-GluR2 NTa2 (A72-T121) (other, UniProt P19491 72-121, looked up)
chain: AVTNAFCSQFSRGVYAIFGFYDKKSVNTITSFCGTLHVSFITPSFPTDGT
notes: range 72-121; also called GluR2NT1-2; not shown: glutathione S-transferase (GST) encoded by vector pGEX-4T3

Key:
[1] = target: B7; assay: GST pull-down, Western blot for GAPDH
[2] = target: T1, [35S]-GAPDH probe (in vitro translated, [35S]-methionine labelled GAPDH) (Homo sapiens, UniProt P04406 1-335, limits assumed, [35S]-methionine labelled); assay: blot overlay with in vitro translated probe
T1 sequence (P04406 whole entry): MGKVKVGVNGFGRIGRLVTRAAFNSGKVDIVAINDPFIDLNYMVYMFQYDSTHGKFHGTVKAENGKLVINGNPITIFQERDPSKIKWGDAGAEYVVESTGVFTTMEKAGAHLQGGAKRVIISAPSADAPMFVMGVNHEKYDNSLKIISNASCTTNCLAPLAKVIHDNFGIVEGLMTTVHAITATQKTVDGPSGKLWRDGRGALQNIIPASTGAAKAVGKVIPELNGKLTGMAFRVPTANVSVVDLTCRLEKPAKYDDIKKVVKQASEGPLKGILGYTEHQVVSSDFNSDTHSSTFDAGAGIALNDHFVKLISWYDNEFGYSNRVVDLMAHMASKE

GST-GluR2NT (V22-E545) = target: T2, GST-GluR2NT (V22-E545) (Rattus norvegicus (Rat), UniProt P19491 22-545); assay: GST pull-down, Western blot for p53 (FIG. 24A)
T2 construct: Bacterial GST fusion on glutathione-Sepharose; not shown: glutathione S-transferase (GST) encoded by vector pGEX-4T3

[3] = target: T1, [35S]-GAPDH probe (in vitro translated, …); assay: repeated in vitro binding assay with in vitro translated probe
[4] = target: B7; assay: repeated GST pull-down from rat hippocampal tissue
GST-GluR1NT (A19-E538) = target: T3, GST-GluR1NT (A19-E538) (UniProt P19490 19-538); assay: GST pull-down from rat hippocampal extracts, Coomassie-stained SDS-PAGE
T3 construct: range 19-538; Control fusion protein; not shown: glutathione S-transferase (GST) encoded by vector pGEX-4T3

[5] = target: B4; assay: repeated GST pull-down from rat hippocampal tissue
[6] = target: B5; assay: repeated GST pull-down from rat hippocampal tissue
GST alone = target: T4, GST alone (UniProt P08515 1-218 = GST); assay: GST pull-down, Western blot for GAPDH
T4 construct: Negative control; also called GST peptide
T4 sequence (P08515 whole entry): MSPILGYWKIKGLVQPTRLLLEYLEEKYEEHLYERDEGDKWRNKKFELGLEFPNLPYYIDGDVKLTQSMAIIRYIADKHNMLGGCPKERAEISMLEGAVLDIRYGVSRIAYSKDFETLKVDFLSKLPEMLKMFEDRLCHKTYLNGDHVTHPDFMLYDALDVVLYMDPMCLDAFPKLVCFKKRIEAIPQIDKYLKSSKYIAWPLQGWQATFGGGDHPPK

Binder: B1
binding result [1]: no binding
binding result [2]: no binding

Binder: B2
binding result (GST-GluR2NT (V22-E545)): no binding

Binder: B3
binding result [1]: no binding
binding result [2]: no binding

Binder: B4
binding result [3]: no binding

Binder: B5
binding result [3]: no binding

Binder: B6
binding result [4]: no binding
binding result [2]: no binding

Binder: B7
binding result (GST-GluR1NT (A19-E538)): no binding
binding result [5]: no binding
binding result [6]: no binding
binding result (GST alone): no binding

Binder: B8
binding result [1]: no binding
binding result [2]: no binding

Reference: patent US20130336951A1 (CENTRE FOR ADDICTION AND MENTAL HEALTH, published 2013)
